Tests used:
Experiment in all cases: enzyme inhibition kinetics
[1] = target: human cationic trypsin, active (human)
[2] = target: human mesotrypsin, active (human) (UniProt P35030)
[3] = target: human anionic trypsin, active (human) (UniProt P07478)
UniProt P07478, sequence (P07478 24-247): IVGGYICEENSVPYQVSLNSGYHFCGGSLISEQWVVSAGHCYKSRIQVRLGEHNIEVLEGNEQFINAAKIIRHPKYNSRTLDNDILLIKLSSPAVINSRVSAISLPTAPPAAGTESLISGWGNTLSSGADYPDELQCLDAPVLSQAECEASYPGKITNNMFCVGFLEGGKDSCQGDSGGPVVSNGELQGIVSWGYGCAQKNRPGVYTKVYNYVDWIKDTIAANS

UniProt P35030, sequence (P35030 81-304): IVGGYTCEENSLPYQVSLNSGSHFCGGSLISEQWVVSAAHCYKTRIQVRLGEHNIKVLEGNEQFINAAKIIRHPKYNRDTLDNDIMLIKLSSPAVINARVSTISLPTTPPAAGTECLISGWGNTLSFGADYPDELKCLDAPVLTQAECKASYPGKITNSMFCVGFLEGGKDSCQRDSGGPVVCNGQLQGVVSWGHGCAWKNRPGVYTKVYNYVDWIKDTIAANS

Substance | Ki [1] [nM] | Ki [2] [nM] | Ki [3] [nM]
APPI_(M17G/I18F/F34V), soluble form (designed binder) | 0.023 |  | 
APPI_(P13W/M17G/I18F/F34V), soluble form (designed binder) | 0.019 | 0.069 | 0.0038
wild-type amyloid β-protein precursor Kunitz protease inhibitor domain (APPI) (from UniProt P05067 289-344) (domain or fragment) | 0.0041 |  | 

Source: paper PMC5929103
